Results published in US9057734B2, “Optogenetic probes for measuring membrane potential” (President and Fellows of Harvard College, priority 2010, dated 2015).

How the values were obtained:
[1] = Relative photostability of Arch 3 and eGFP in Arch 3-eGFP fusion; type: physicochemical
Description: To perform a direct comparison of photostability of Arch 3 and eGFP we studied the photobleaching of the Arch 3-eGFP fusion. This strategy guaranteed a 1:1 stoichiometry of the two fluorophores, simplifying the analysis. The experiments were performed on permeabilized cells, in the microscope, with video recording as the cells photobleached. We first recorded a movie of photobleaching of Arch 3 under 640 nm illumination; then on the same field of view we recorded photobleaching of eGFP under 488 nm illumination, with illumination intensity adjusted to yield approximately the same initial count rate as for Arch 3. Fluorescence background levels were obtained from nearby protein-free regions of each movie and were subtracted from the intensity of the protein-containing regions. The area under each photobleaching timetrace was calculated, yielding an estimate of the total number of detected photons from each fluorophore. The eGFP emission (λmax=509 nm) and the Arch emission (λmax=687 nm) were collected through different emission filters, so the raw counts were corrected for the transmission spectra of the filters and the wavelength-dependent quantum yield of the EMCCD camera. The result was that the relative number of photons emitted prior to photobleaching for eGFP:Arch 3 WT was 3.9:1, and for eGFP:Arch D95N this ratio was 10:1.

HEK-293 cells = test: Fluorescence versus membrane potential under whole-cell voltage clamp (ramp, step, frequency response, noise); type: cell-based, human
Description: Fluorescence of Arch 3 in HEK 293 cells was readily imaged in an inverted fluorescence microscope with red illumination (λ=640 nm, I=540 W/cm^2), a high numerical aperture objective, a Cy5 filter set, and an EMCCD camera. […] Cells not expressing Arch were not fluorescent.
HEK-293 cells were grown at 37° C., 5% CO2, in DMEM supplemented with 10% FBS and penicillin-streptomycin. Plasmids were transfected using LIPOFECTAMINE™ and PLUS reagent (Invitrogen) following the manufacturer's instructions, and assayed between 48-72 hours later. The day before recording, cells were re-plated onto glass-bottom dishes (MatTek) at a density of ˜5000 cells/cm^2.
The concentration of endogenous retinal in the HEK cells was not known, so the cells were supplemented with retinal by diluting stock retinal solutions (40 mM, DMSO) in growth medium to a final concentration of 5 μM, and then placing the cells back in the incubator for 1-3 hours. All imaging and electrophysiology were performed in Tyrode's buffer (containing, in mM: 125 NaCl, 2 KCl, 3 CaCl2, 1 MgCl2, 10 HEPES, 30 glucose pH 7.3, and adjusted to 305-310 mOsm with sucrose). Only HEK cells having reversal potentials between −10 and −40 mV were included in the analysis.
Simultaneous fluorescence and whole-cell patch clamp recordings were acquired on a home-built, inverted epifluorescence microscope at room temperature. A diode laser operating at 100 mW, 640 nm (CrystaLaser, DL638-100-O) provided wide-field illumination at an intensity typically between 500-2000 W/cm^2. To minimize background signal from out-of-focus debris, illumination was often performed in through-the-objective total internal reflection fluorescence (TIRF) mode. Fluorescence emission was collected using a 60×, 1.45 NA oil immersion objective (Olympus), and separated from scattered excitation using a 660-760 nm bandpass emission filter (Chroma). For fast imaging of dynamic fluorescence responses and action potentials, images were acquired on an Andor iXon^+ 860 camera operating at up to 2,000 frames/s (using a small region of interest and pixel binning). Slower images with higher spatial resolution were acquired on an Andor iXon^+ 897 EMCCD. Custom software written in LabView (National Instruments) was used to synchronize illumination, collection of images, recording of membrane potential and cell current, and application of electrical stimuli to the cell.
Filamented glass micropipettes (WPI) were pulled to a tip resistance of 3-10 MΩ, fire polished, and filled with internal solution (containing, in mM: 125 Potassium gluconate, 8 NaCl, 0.6 MgCl2, 0.1 CaCl2, 1 EGTA, 10 HEPES, 4 Mg-ATP, 0.4 Na-GTP, pH 7.3; adjusted to 295 mOsm with sucrose). The micropipettes were positioned with a Burleigh PCS 5000 micromanipulator. Whole-cell, voltage clamp recordings were acquired using an AxoPatch 200B amplifier (Molecular Devices), filtered at 2 kHz with the internal Bessel filter, and digitized with a National Instruments PCIE-6323 acquisition board at 10 kHz. Ambient 60 Hz noise was removed using a HumBug Noise Eliminator (AutoMate Scientific). For experiments requiring rapid modulation of transmembrane potential, series resistance and whole-cell capacitance were predicted to 95% and corrected to ˜50%. Electrical stimuli were generated using the PCIE-6323 acquisition board and sent to the AXOPATCH™, which then applied these signals in either constant current or constant voltage mode.
To measure fluorescence as a function of membrane potential, a triangle wave was applied, with amplitude from −150 mV to +150 mV and period 12 s, with video recording at 100 ms per frame. A pixel weight matrix was calculated according to Eq. S2 and applied to the movie images to generate a fluorescence number for each frame. These fluorescence values were divided by their minimum value (at V=−150 mV). The result is plotted as a function of Vin FIGS. 7 and 8. […]

HEK cells = test: Photocurrents under 640 nm illumination in voltage-clamped cells; type: cell-based, human
Description: Measurements of photocurrents were performed on HEK cells held in voltage clamp at 0 mV while being exposed to brief (200 ms) pulses of illumination at 640 nm at an intensity of 1800 W/cm^2.

neurons = test: Light-induced photocurrent and perturbation of membrane potential in neurons; type: cell-based, rat; details: I=1800 W/cm2, TIR mode
Text: Under illumination conditions typically used for imaging neural activity (I=1800 W/cm2 in total internal reflection (TIR) mode), the light-induced outward photocurrent was typically 10 pA in neurons expressing Arch 3 WT. Under current-clamp conditions this photocurrent shifted the resting potential of the neurons by up to −20 mV. For neurons near their activation threshold, this photocurrent could suppress firing (FIG. 9A), so we explored the non-pumping variant D95N as a voltage indicator in neurons.
Whole-cell current clamp recordings were obtained from mature neurons under the same conditions used for HEK cells recordings. Series resistance and pipette capacitance were corrected. Only neurons having resting potentials between −50 and −70 mV were used in the analysis.

B1: Arch 3 WT: Archaerhodopsin 3, light-driven proton pump from Halorubrum sodomense, used as fluorescent voltage indicator (protein)
chain: MDPIALQAGYDLLGDGRPETLWLGIGTLLMLIGTFYFLVRGWGVTDKDAREYYAVTILVPGIASAAYLSMFFGIGLTEVTVGGEMLDIYYARYADWLFTTPLLLLDLALLAKVDRVTIGTLVGVDALMIVTGLIGALSHTAIARYSWWLFSTICMIVVLYFLATSLRSAAKERGPEVASTFNTLTALVLVLWTAYPILWIIGTEGAGVVGLGIETLLFMVLDVTAKVGFGFILLRSRAILGDTEAPEPSAGADVSAAD
modifications: Halorubrum sodomense
notes: Archaerhodopsin 3, light-driven proton pump from Halorubrum sodomense, used as fluorescent voltage indicator
[1]
  photons prior to photobleaching relative to eGFP: approximately 25%
HEK-293 cells; HEK cells
  voltage steps resolved/reported: 10 mV
HEK-293 cells; continuous 10-minute exposure, 640 nm, 540 W/cm2
  photobleaching: 17%
HEK-293 cells; sinusoidal membrane potential, f=1 kHz
  fluorescence oscillation amplitude retained relative to low-frequency amplitude: 55%
HEK-293 cells; steps between −70 mV and +30 mV
  response time to a step in membrane potential: < 0.5 ms
HEK-293 cells; time resolution of imaging system, rising and falling edge
  response of fluorescence to a step in membrane potential, time: ≤ 500 μs
HEK-293 cells; whole-cell voltage clamp
  increase of fluorescence (fold/factor) between −150 mV and +150 mV: 2
HEK cells; 640 nm, HEK cells
  photocurrents induced by imaging laser: 10-20 pA
HEK cells; illumination at 640 nm
  photocurrent / photoinduced proton pumping: retains the photoinduced proton-pumping
neurons
  light-induced outward photocurrent: ~10 pA
